The text below walks through data of publication PMC5479578 (Biochemistry, 2017).

As a reminder, the Kd is a measure of binding affinity in units of concentration. High values mean weaker binding, low ones tighter binding. What is called stoichiometry N is a count of units in the complex or per binding partner. As usually defined, the koff is a measure of how fast the partners let go of each other. High values mean a short-lived complex, low ones a long-lived complex. In general, kon refers to the second-order rate constant of association. Low readings indicate slower complex formation, high ones faster complex formation. The Ki is the equilibrium dissociation constant of an inhibitor or competing ligand from its target. A lower Ki goes with a stronger hold on the target.

Square brackets hold non-standard residues; d marks the D form. Ends that are not written are not given here. Peptide text beside a SMILES is read from it. * marks the point of attachment. FITC = O=C1OC2(c3ccc(O)cc3Oc3cc(O)ccc32)c2ccc(NC(=S)*)cc21; Biotin = O=C1N[C@H]2[C@H](CS[C@H]2CCCCC(=O)*)N1; pT = C[C@@H](OP(=O)(O)O)[C@H](N)C(=O)O

In one test the target is T1, PDZ1 of NHERF1 (Homo sapiens, UniProt O14745).
T1 sequence (O14745 1-140): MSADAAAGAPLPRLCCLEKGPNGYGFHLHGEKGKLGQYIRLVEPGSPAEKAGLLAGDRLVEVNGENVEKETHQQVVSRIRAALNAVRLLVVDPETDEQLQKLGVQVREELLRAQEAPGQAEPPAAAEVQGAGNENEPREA
The test can be described thus: Isothermal titration calorimetry, NHERF1 PDZ1. The test is classed as binding. A general note: In ITC the heat of successive injections is recorded.

Test [1] addresses T2, PDZ2 of NHERF1 (Homo sapiens, UniProt O14745).
T2 sequence (O14745 133-300): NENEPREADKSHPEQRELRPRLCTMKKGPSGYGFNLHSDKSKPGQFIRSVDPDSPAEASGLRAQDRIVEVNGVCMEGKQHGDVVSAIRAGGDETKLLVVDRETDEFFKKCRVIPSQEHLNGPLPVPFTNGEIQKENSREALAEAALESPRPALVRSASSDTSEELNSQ
The test can be described thus: Isothermal titration calorimetry, NHERF1 PDZ2. The test is classed as binding.

For test [2], the target named is T2, PDZ2 of NHERF1. The test can be described thus: Surface plasmon resonance, NHERF1 PDZ2. Format: binding. (In SPR one partner is held on a chip, and binding of the other changes the refractive index at the surface.)
The target in test [3] is NHERF1 PDZ1 domain (1-140) (human) (UniProt O14745). Put plainly: ITC.
Test [4] deals with NHERF1 PDZ2 domain (133-300) (human) (UniProt O14745). The test can be described thus: ITC.
The test system of the next test is PTHR. Put plainly: Mass spectrometry of PTHR phosphorylation in cell lysates. Format: cell-based. The following applies: PTH(1–34) treatment; MS-MS of cell lysates.
Test [5] concerns the target T3, NHERF1 PDZ2 domain (133-300) (human, UniProt O14745 133-300).
T3 sequence (looked up): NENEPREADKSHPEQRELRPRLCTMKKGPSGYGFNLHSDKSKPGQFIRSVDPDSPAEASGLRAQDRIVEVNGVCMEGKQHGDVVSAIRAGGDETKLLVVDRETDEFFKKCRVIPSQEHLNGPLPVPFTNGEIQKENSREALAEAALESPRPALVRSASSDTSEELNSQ
The test can be described thus: fluorescence polarisation. For orientation: In fluorescence polarisation assays a small probe gives low polarisation when free and higher when bound to something large.

In test [6] the target is T4, NHERF1 PDZ1 domain (1-140) (human, UniProt O14745 1-140).
T4 sequence (looked up): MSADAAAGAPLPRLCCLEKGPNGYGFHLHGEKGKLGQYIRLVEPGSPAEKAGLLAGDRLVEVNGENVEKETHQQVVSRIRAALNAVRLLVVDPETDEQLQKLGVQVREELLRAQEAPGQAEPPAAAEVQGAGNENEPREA
The test can be described thus: fluorescence polarisation.

The target in test [7] is T3, NHERF1 PDZ2 domain (133-300). The test can be described thus: fluorescence polarisation. This is another data set of the same source.
The target of test [8] is T4, NHERF1 PDZ1 domain (1-140). The test can be described thus: fluorescence polarisation. The source holds these as a separate data set.
The target in test [9] is T3, NHERF1 PDZ2 domain (133-300). Put plainly: fluorescence polarisation. The source holds these as a separate data set.
For test [10], the target named is T4, NHERF1 PDZ1 domain (1-140). Put plainly: fluorescence polarisation. This is another data set of the same source.
Test [11] concerns the target T3, NHERF1 PDZ2 domain (133-300). Put plainly: fluorescence polarisation. The source holds these as a separate data set.
Test [12] concerns the target T4, NHERF1 PDZ1 domain (1-140). The test can be described thus: fluorescence polarisation. This is another data set of the same source.
For test [13], the target named is T3, NHERF1 PDZ2 domain (133-300). Put plainly: SPR.
Test [14] has as its target T4, NHERF1 PDZ1 domain (1-140). The test can be described thus: SPR.
Test [15] concerns the target T3, NHERF1 PDZ2 domain (133-300). Put plainly: SPR. This is another data set of the same source.
In test [16] the target is T4, NHERF1 PDZ1 domain (1-140). The test can be described thus: SPR. This is another data set of the same source.
Test [17] addresses T3, NHERF1 PDZ2 domain (133-300). Put plainly: fluorescence polarisation. This is another data set of the same source.
For test [18] the target is unchanged. Put plainly: ITC.
Test [19] deals with T4, NHERF1 PDZ1 domain (1-140). The test can be described thus: ITC.
The target of test [20] is T4, NHERF1 PDZ1 domain (1-140). Put plainly: fluorescence polarisation. This is another data set of the same source.

For the molecule QEEWATVM [QEEWATVM], the values for the Kd at PDZ1 of NHERF1 and at PDZ2 of NHERF1 [1] were 34.2 ± 0.5 µM and 35.5 ± 2 µM, respectively.
As for QEAWATVM, the “n (stoichiometry)” value on PDZ1 of NHERF1 (ITC, PDZ1, 25 °C, mean ± S.E.M. (n = 3)) was 1.12 ± 0.03; at PDZ2 of NHERF1 [1] (ITC, PDZ2, 25 °C, mean ± S.E.M. (n = 3)), 1.04 ± 0.02.
In the case of QEAWETVM [QEAWETVM], the values for the dissociation constant Kd on PDZ1 of NHERF1 and at PDZ2 of NHERF1 [1] were 25.5 ± 1.1 µM and 26.8 ± 2.1 µM, respectively.
In turn, `CSCC[C@H](NC(=O)[C@@H](NC(=O)[C@@H](NC(=O)[C@H](CCC(=O)O)NC(=O)[C@H](Cc1c[nH]c2ccccc12)NC(=O)[C@H](CCC(=O)O)NC(=O)[C@H](CCC(=O)O)NC(=O)[C@H](CCC(N)=O)NC(=O)[C@H](CC(C)C)NC(=O)[C@H](CC(C)C)NC(=O)[C@H](C)NC(=O)[C@@H]1CCCN1C(=O)[C@@H]1CCCN1C(=O)[C@H](CCCNC(=N)N)NC(=O)[C@H](CCC(=O)O)NC(=O)[C@@H]1CCCN1C(=O)CNC(=O)[C@H](CO)NC(=O)[C@H](C)NC(=O)[C@H](CCC(=O)O)NC(=O)[C@H](CCC(=O)O)NC(=O)[C@H](CC(=O)O)NC(=O)CCCC[C@@H]1SC[C@@H]2NC(=O)N[C@@H]21)[C@@H](C)O)C(C)C)C(=O)O` [b-PTHRct-22] (Biotin-DEEASGPERPPALLQEEWETVM-OH) had a Kd on PDZ2 of NHERF1 [2] of 11.5 ± 0.4 µM.
In test [3], “PTHRct-8 peptide with Ala at Glu-6 and Glu-5” showed a Kd of 24.4 µM, a dH of -3.8 kcal/mol and a stoichiometry N of 1.26. Further, in test [4], the Kd turned out to be 57.8 µM, the dH was -7.2 kcal/mol and the stoichiometry N was 1.26.
Turning to QAEWETVM [QAEWETVM], the Kd on PDZ1 of NHERF1 turned out to be 13.1 ± 1.7 µM; at PDZ2 of NHERF1 [1] it was 18.1 ± 2.4 µM.
For the molecule PTHRct-8 peptide with Ala at Glu-5, in test [3], the Kd was 25.5 µM, the dH was -7.6 kcal/mol and the stoichiometry N was 1.21. Moreover, in test [4], the Kd came to 26.8 µM and the dH is -10.3 kcal/mol.
In test [3], PTHRct-8 peptide with Ala at Glu-6 returned a Kd of 13.1 µM, a dH of -4.3 kcal/mol and a stoichiometry N of 1.1. In test [4], this molecule yielded a Kd of 18.1 µM and a stoichiometry N of 1.12.
Consider PTHRct-8 peptide with Ala at Glu-3, for which, in [3], the Kd was 34.2 µM and the stoichiometry N stood at 1.15. Besides, in test [4], the Kd was 35.5 µM, the dH was -8.6 kcal/mol and the stoichiometry N came out at 0.88.
In the case of QAAWETVM [QAAWETVM], on PDZ1 of NHERF1, binding was put at a Kd of 24.4 ± 0.6 µM.
In the case of human Nle^8,18Tyr^34-PTH(1–34), the “phosphorylation of PTHR Thr591” value in the test with PTHR was “promoted phosphorylation of Thr591”.
Consider {FITC}-LQEEWETVM [FITC-labeled carboxy-terminal PTHR 9-residue peptide], for which the Kd in test [5] was 0.6 µM; in test [6], 1 µM; in [7] it was 0.6 µM; in [8], 1 µM; in test [9] it was 2.4 µM; in test [10], 4.7 µM. Also, the Kd in [11] and in test [12] was 0.4 µM each time.
As for Biotin-DEEASGPERPPALLQEEWETVM [biotinylated carboxy-terminal 22-amino acid PTHR peptide], the Kd in test [13] is 11.5 µM; in [14], 16 µM. The koff in test [15] is 0.393 s⁻¹; in test [16], 0.606 s⁻¹. The kon is 57000 M⁻¹ s⁻¹ in test [15] and 14700 M⁻¹ s⁻¹ in [16]. The same molecule came in with a Ki in test [17] of 7 µM.
QEEWETVM [wild-type PTHRct-8 peptide]: in [18], the affinity, expressed as Kd, was 9.7 µM; the dH is -21.6 kcal/mol; the “stoichiometry N” value was found to be 1.13. In addition, in test [19], the Kd is 11.7 µM, the dH was -10.6 kcal/mol and the “stoichiometry N” value came out at 1.11.
As to LQEEWE[pT]VM [phosphorylated Thr-2-PTHRct-9], in test [20], affinity was put at a Ki of 121 µM.
For LQEEWETVM [unlabeled carboxy-terminal PTHR 9-residue peptide], the Ki in test [20] was 1.4 ± 0.9 µM.
Still for that read-out and setting: the result for LQEEWECVM [Thr-2/Cys-2 mutant of PTHRct-9] reads 11 µM.
